In patent US20230189818A1, “RNA-BASED CONTROL OF BOTRYTIS” (priority 2021, published 2023):

How the values were obtained:
Botrytis cinerea conidia = assay: In vitro liquid-based assay (fungal biomass, 96-well plates, Cytation 5); assay type: cell-based; details: co-incubated with conidia for three days, vs untreated control
In short: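 Conidia (5000/mL stock) were co-incubated with dsRNA or control treatments in pH 6.0 minimal medium. Incubation ran 72 h at 23 °C, shaking at 120 rpm under continuous light. Fungal biomass was measured by brightfield imaging (8 slices per well, 2.5× lens) and expressed as average reduction versus control.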

[1] = system: Botrytis cinerea isolate (B05.10); assay: Detached leaf assay (tomato leaflets, lesion size); assay type: in vivo; details: five days post inoculation, vs untreated inoculated control
In short: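 Tomato (Brandywine) detached lateral leaflets were sprayed with treatment in 0.03% Silwet L-77 24 h before inoculation. Two 10 μL drops of 1×10^5 conidia/mL in 7% grape juice were applied per leaflet, which was then incubated at 23 °C, ~75% RH, 12/12 light. Lesion diameter was measured at 5 DPI against the untreated inoculated control, ten replicates.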

[2] = system: Botrytis cinerea B05.10 isolate; assay: Greenhouse whole plant assay (tomato 'Lanai', disease severity); assay type: in vivo; details: final rating day (rating #3)
Method: Plant Tissue: Tomato seedlings, variety “Lanai”, were seeded then thinned to one plant per pot in an 18 cell tray. […] Plants were grown at a 23° C./17° C. day/night temperature with 10 hours of light each 24-hour period. The RH was ambient and plants were fertilized two times a day every day except for Sunday when they received only water. Plants were grown using Fafard brand medium (70-80% sphagnum peat moss, perlite, vermiculite, dolomite limestone and watering agent) for the entire experiment.
Fungal culture. A Botrytis cinerea B05.10 isolate was maintained, and spores were harvested as previously described for detached leaf assays, except a grape juice additive was not used for inoculum preparation.
Treatment of plants. Whole tomato plants were treated ˜24 hours before inoculation using the spray booth. A 0.07% Silwet L-77 solution was used as a spreader and added for a 0.07% final volume in water (Silwet L-77 brand Phyto Technology Laboratories, S7777 Lot #14D7777001 F). The spray booth deck was set to 20″ above the plant canopy and a twinjet 8002EVS nozzle with 100 mesh filter placed into the spray mechanism. The spray boom was calibrated before treatment application with specs as follows: 50 GPA rate, 1.25 MPH speed, 6′ spray length, single pass, and at 45 psi to get a catch of 133 mL in 10 seconds (+/−6 mL). Each treatment was replicated ten times for each experimental run.
Inoculation. Plants were inoculated using a mist-o-matic applicator, which is pressurized by manual pumping. The inoculum suspension was poured into the mist-o-matic immediately before inoculation in the GH space. The containers were only filled half-way and inoculum was applied evenly to the surface of all foliage with even coverage.
Incubation. Plants were incubated inside of a 40″ tall humidity chamber supported by PVC pipe and covered in 3M translucent plastic. A humidifier was inside the chamber and set to low and continuous humidity (filled with tap water). The temperature was D:24-20° C./N:20-18° C. with 15 hours of light, of which 9 hours was with supplemental lighting. RH was ambient and watering occurred everyday by sub-irrigation with the bench being flooded for 10 minutes before draining.
Rating. Tomato plants were rated three times during the two-week experiment with rating starting four days post-inoculation and occurring every three to four days after the initial rating date. Plants were rated for the number of lesions and disease severity, which is the percentage of the plant that was symptomatic including necrotic lesions, pathogen sporulation, and chlorosis.
Data analysis. […] Percent disease severity (%DS) was determined by the percent area of the tomato foliage with symptoms including lesions, chlorosis, necrosis, and wilting. Disease severity was rated at three dates (Rating #) over the 12-day test period. Treatments were compared to the untreated, inoculated control and a chemical standard. Statistical analysis was done using SAS JMP version 13.2.1 with treatments compared to the untreated, inoculated control and a chemical standard using Tukey-Kramer and student's T tests.

[3] = 8 g ai/ha, two runs, three-week-old 'Lanai' tomato plant
[4] = 25 g ai/ha, two runs, three-week-old 'Lanai' tomato plant

B1: GS793: dsRNA trigger targeting B. cinerea Bcswd2 (XM_024694665.1); trigger SEQ ID NO 20, RNA 32, reverse complement 44 (nucleic acid, listed as Botrytis cinerea)
sense: CUGCGUCACUAUAUGGUCCUAGACUUUUCAACUCCCUCUUUGAAGCUUACACAACAUCUUGGAAAAGUAUAAAAACAACAACAAGAAACAUGUCGUCAACCCCUAUGGCGAUAGACUCUCCAUUAGGUGCGAAUGGUACUUCCAUGUUGAAAGCAAACGGAGUCUCAUCAGUCCCACAGACUGGCAAACUGACUGAGAUGAUCUCAUUAUACCAUCCAGUCAAGCUUUUCAAACAUCCUCCGACACCUGCAGACAAAGGGCAAACUCCUCCGAGUUACAACUUUAUUCAGUCUAUCAAUUUCAAUGACAAUGGCAGUCAGCUUAUCACGUCAGAAACUGAUAACACUAUGCAAAUAUAUGAUGUUCUCGAAGGAAGACAUUCAAAAAUGAAUAUUAGUGCCAAGUAUGGUUGUAACCAUGCAAUGUUUGGCCAUGCUGAACAUUGUAUAAUCCAUUCUAGUACCAAAAAAGACCACAA
antisense: UUGUGGUCUUUUUUGGUACUAGAAUGGAUUAUACAAUGUUCAGCAUGGCCAAACAUUGCAUGGUUACAACCAUACUUGGCACUAAUAUUCAUUUUUGAAUGUCUUCCUUCGAGAACAUCAUAUAUUUGCAUAGUGUUAUCAGUUUCUGACGUGAUAAGCUGACUGCCAUUGUCAUUGAAAUUGAUAGACUGAAUAAAGUUGUAACUCGGAGGAGUUUGCCCUUUGUCUGCAGGUGUCGGAGGAUGUUUGAAAAGCUUGACUGGAUGGUAUAAUGAGAUCAUCUCAGUCAGUUUGCCAGUCUGUGGGACUGAUGAGACUCCGUUUGCUUUCAACAUGGAAGUACCAUUCGCACCUAAUGGAGAGUCUAUCGCCAUAGGGGUUGACGACAUGUUUCUUGUUGUUGUUUUUAUACUUUUCCAAGAUGUUGUGUAAGCUUCAAAGAGGGAGUUGAAAAGUCUAGGACCAUAUAGUGACGCAG
Average % Reduction in Biomass (Botrytis cinerea conidia; 25 ppm dsRNA): 13% | Average % Reduction in Biomass (Botrytis cinerea conidia; 150 ppm dsRNA): 36% | Average % Reduction in Lesion Size ([1]; 30 ppm): 55.26% | Average % Reduction in Lesion Size ([1]; 50 ppm): 57.69% | % control ([2]; 25 g ai/ha, three runs, four-week-old 'Lanai' tomato plant): 24%

B2: GS728: dsRNA trigger targeting B. cinerea XM_024691746.1; trigger SEQ ID NO 18, RNA 30, reverse complement 42 (nucleic acid, listed as Botrytis cinerea)
sense: CACAAGAAGCAUGGGGUAUGAAGAGAUAAGUUGUGGCUGGUGAACAACUAAAUCGACAUUUUCCGUCCCCACAGCACCUUUCGAACACUGAAUUCAAUUAAUUAUACACUGUUCCAGUAUCCACUUCCACUUCCACUCCCACAAAACAUACAAUACUACGAUAAUACGAUUUUACGAUAACGUCCAGCCUUGAGGACAACAAGUCAGAUGAAAAUCACGAGAUGGCAUUGUUUUUGAUGUUAGUAAAUGCUAUACCGACGGUAAUCGGCACUGCUGAAGCAUUAGAUGUUCAGAAGAAGGAAGAUUUGGCCCAGAAGCACAAGGCAAAGUUUUUCAUGACGGCGAAUUUUGCUUUGGAUGGAAAGGUUGCUCAUGAAAAAGAAUCACAGGUCGUCCUACGCGAUAACAGGAUGUACUUAAACCACCCAGAUGCGCCGAAAGAAGGACAUCGAUUUUGUGGUUACUAUUUCAUGUAUC
antisense: GAUACAUGAAAUAGUAACCACAAAAUCGAUGUCCUUCUUUCGGCGCAUCUGGGUGGUUUAAGUACAUCCUGUUAUCGCGUAGGACGACCUGUGAUUCUUUUUCAUGAGCAACCUUUCCAUCCAAAGCAAAAUUCGCCGUCAUGAAAAACUUUGCCUUGUGCUUCUGGGCCAAAUCUUCCUUCUUCUGAACAUCUAAUGCUUCAGCAGUGCCGAUUACCGUCGGUAUAGCAUUUACUAACAUCAAAAACAAUGCCAUCUCGUGAUUUUCAUCUGACUUGUUGUCCUCAAGGCUGGACGUUAUCGUAAAAUCGUAUUAUCGUAGUAUUGUAUGUUUUGUGGGAGUGGAAGUGGAAGUGGAUACUGGAACAGUGUAUAAUUAAUUGAAUUCAGUGUUCGAAAGGUGCUGUGGGGACGGAAAAUGUCGAUUUAGUUGUUCACCAGCCACAACUUAUCUCUUCAUACCCCAUGCUUCUUGUG
Average % Reduction in Biomass (Botrytis cinerea conidia; 25 ppm dsRNA): 20% | Average % Reduction in Biomass (Botrytis cinerea conidia; 150 ppm dsRNA): 35% | Average % Reduction in Lesion Size ([1]; 30 ppm): 20.16% | Average % Reduction in Lesion Size ([1]; 50 ppm): 16.48% | % control [2, 3]: 27% | % control [2, 4]: 37%

B3: GS686: dsRNA trigger targeting B. cinerea Bcrrp1 (XM_001550365.2); trigger SEQ ID NO 17, RNA 29, reverse complement 41 (nucleic acid, listed as Botrytis cinerea)
sense: CCCCUCCACCCAAGCACCUUUCUACACCGGAUUCUGGGAAAUCAUGUCCAAAGAAUGGGAACGCAUUGAUGUGCUGCGCAUGGAGAAAUUCCUGCUGCUAGUGAGACGCUAUUUGGCAGCUGGUUUUGAGGUUGUGGUAUCCAGCUCUUCCGCACCUGCGGGAAAGAAAAACAAGACGAAAGCUUCGAAGAAAGUGAUUUCGGAAUCCGGAGAGCAGGUAUUAGAAGUCCUAUCUUCCAUUCCCUGUGGUUCGGGCCCCGAUGCGCAACGCACACCGAAUGGAAUGCGCUUCCACGUAAUCGAUAUCUGGAUCGACGAGCUUGAGAAACUGGGUGUGAUCGACGCAGCGAAGGAGAGUGAAGAGGGCGCUGAGAAAUUAGAGAAAUUACUGGAGCCGUUGAGGAAAUUGGGAAAGGAGAGCAUUAAUAAGACGGUCAGGAAUAAGUGUAAGGAGGC
antisense: GCCUCCUUACACUUAUUCCUGACCGUCUUAUUAAUGCUCUCCUUUCCCAAUUUCCUCAACGGCUCCAGUAAUUUCUCUAAUUUCUCAGCGCCCUCUUCACUCUCCUUCGCUGCGUCGAUCACACCCAGUUUCUCAAGCUCGUCGAUCCAGAUAUCGAUUACGUGGAAGCGCAUUCCAUUCGGUGUGCGUUGCGCAUCGGGGCCCGAACCACAGGGAAUGGAAGAUAGGACUUCUAAUACCUGCUCUCCGGAUUCCGAAAUCACUUUCUUCGAAGCUUUCGUCUUGUUUUUCUUUCCCGCAGGUGCGGAAGAGCUGGAUACCACAACCUCAAAACCAGCUGCCAAAUAGCGUCUCACUAGCAGCAGGAAUUUCUCCAUGCGCAGCACAUCAAUGCGUUCCCAUUCUUUGGACAUGAUUUCCCAGAAUCCGGUGUAGAAAGGUGCUUGGGUGGAGGGG
Average % Reduction in Biomass (Botrytis cinerea conidia; 25 ppm dsRNA): 16% | Average % Reduction in Biomass (Botrytis cinerea conidia; 150 ppm dsRNA): 37% | Average % Reduction in Lesion Size ([1]; 30 ppm): 39.61% | Average % Reduction in Lesion Size ([1]; 50 ppm): 33.29% | % control [2, 3]: 31% | % control [2, 4]: 14%
